Source: article PMC8863222
pKd: −log10 of the molar value.

Biological target: recombinant equine Keap1, GST-tagged, biotinylated (equine) (UniProt F6VZG9)
Test: BLI; biotinylated Keap1 (65 μg/ml) loaded on streptavidin-coated biosensors; various concentrations of Rev or Nrf2 in PBST (PBS, 0.1 mg/ml BSA, 0.002% Tween 20, pH 7.2); room temperature; Octet Red

Substance	pKd
recombinant EIAV Rev, MBP-tagged (natural protein)	6.31
recombinant equine Nrf2, His-tagged (natural protein)	6.40
